Target: cys-protein G conjugated to a peptide nucleic acid strand (PG-PNA)

Substance: RBD, Fc (SARS-CoV-2 spike receptor binding domain with Fc) (from UniProt P0DTC2) (Fc fusion)
- stoichiometry N: 2.82 RBD:PG

Reference: article PMC10034259
